Assays:
F-actin (rabbit) [1] = target: F-actin (rabbit) (UniProt P68135)
[2] = target: Regulated thin filaments (TRITC-actin with skeletal tropomyosin and troponin) (rabbit | not stated) (UniProt P68135)
F-actin (rabbit) [3] = target: F-actin (rabbit) (UniProt P68135); remark: listed apart in the source
F-actin (rabbit) [4] = target: F-actin (rabbit) (UniProt P68135); remark: listed apart in the source
F-actin (rabbit) [5] = target: F-actin (rabbit) (UniProt P68135); remark: listed apart in the source
F-actin (rabbit) [6] = target: F-actin (rabbit) (UniProt P68135); remark: listed apart in the source

KM for F(N): N at half-maximal V(N) against a mechanical load of 0.5 μg/ml α-actinin on the motility surface (F-actin (rabbit) [1]): 16 | KM for F(N): N at half-maximal V(N) against a mechanical load of 1.0 μg/ml α-actinin on the motility surface (F-actin (rabbit) [1]): 38 | KM for V: N (myosin per μm actin; N equals μg/ml myosin incubated) at half-maximal actin sliding velocity V(N), in vitro motility assay, 50 mM KCl, 30 °C (F-actin (rabbit) [1]): 16 | KM for V: N at half-maximal actin sliding velocity V(N), in vitro motility assay, 100 mM KCl, 30 °C (F-actin (rabbit) [1]): 17 | KM for v: N at half-maximal actin-activated ATPase activity v(N), measured in a motility flow cell, 50 mM KCl, 30 °C (F-actin (rabbit) [1]): 46 | KM for v: N at half-maximal actin-activated ATPase activity v(N), measured in a motility flow cell, 100 mM KCl, 30 °C (F-actin (rabbit) [1]): 23 | pseudo KM for pCa50: half the N at which the pCa50 of thin filament sliding velocity saturates, in vitro motility assay, 50 mM KCl [2]: 24 | pseudo KM for pCa50: half the N at which the pCa50 of thin filament sliding velocity saturates, in vitro motility assay, 100 mM KCl [2]: 26 | actin activation of the ATPase activity of surface-bound myosin at low N in a motility flow cell (0.15 μM actin, Figure 3) (F-actin (rabbit) [3]): 4 fold | inhibition of actin-activated ATPase activity (N = 5, 1.0 μM actin; v from 0.59 to 0.26 μM Pi/min) by the load of 1.0 μg/ml α-actinin on the motility surface (F-actin (rabbit) [4]): 55% | KM: N at half-maximal V(N), in vitro motility assay, control without (-)-blebbistatin (Figure 2D) (F-actin (rabbit) [5]): 16.1 | KM: N at half-maximal V(N), in vitro motility assay, with 10 μM (-)-blebbistatin (Figure 2D) (F-actin (rabbit) [5]): 13.3 | KM: N at half-maximal V(N), in vitro motility assay, with 50 μM (-)-blebbistatin (Figure 2D) (F-actin (rabbit) [5]): 6.4 | KM: N at half-maximal V(N), in vitro motility assay, control without α-actinin (Figure 5A) (F-actin (rabbit) [6]): 19
Substance: Skeletal muscle myosin (from UniProt Q28641 1-1938) (complex)
